Test results as given in publication doi:10.1101/2020.02.10.941963.
Where two headings read alike, the source gives them in different places.

How the values were obtained:
[1] = target: T1, Rv1019 (TetR family regulator) (Mycobacterium tuberculosis H37Rv) (UniProt P96381); test: EMSA
T1 sequence: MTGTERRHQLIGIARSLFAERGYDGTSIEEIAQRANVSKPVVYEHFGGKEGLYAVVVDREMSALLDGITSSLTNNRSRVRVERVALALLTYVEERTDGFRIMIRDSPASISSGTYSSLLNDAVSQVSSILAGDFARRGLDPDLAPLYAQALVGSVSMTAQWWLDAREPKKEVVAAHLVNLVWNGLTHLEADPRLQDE

[2] = target: Rv1019, putative TetR family transcriptional regulator of Mycobacterium tuberculosis H37Rv (Mycobacterium tuberculosis H37Rv); test: cross-linking
[3] = target: Rv1019, putative TetR family transcriptional regulator of Mycobacterium tuberculosis H37Rv (Mycobacterium tuberculosis H37Rv); test: native gel or EMSA
[4] = target: T2, Rv1019 (TetR family regulator) (Mycobacterium tuberculosis H37Rv, UniProt P96381 1-197); test: EMSA
T2 sequence: T1 sequence

[5] = target: T2, Rv1019 (TetR family regulator); test: EMSA; remark: listed apart in the source

## CCTGGCGCGCGTCACCCGCGTCGGGTTTTCCGGCGCCTTATCCGGCCCTTTATCCGGTCCGGCCACATCAACAAGGGTATCGGTTTGCGTGGGGCCGGTGGGTAGACGGCGACAGCGTTGACTGTGCTGACGGCGTTGACACCGTCTAAAGTCACATCGATGTGCAATCCGTCGTGGTGTAATCGGCAGCACCTCTGATTTTGGTTCAGATAGTTCAGGTTCGAGTCCTGGCGACGGAGCTTCAAGGAGGGTTGATGACGTTTCCTGGTGACACCGCGGTCCTGGTCCTAGCGGCCGGGC (double strand) [Fragment I, Rv1019 upstream -300 to -1]
[1]
  binding: binds

## Rv1019, putative TetR family transcriptional regulator of Mycobacterium tuberculosis H37Rv (natural protein)
[2]
  stoichiometry N: 2
[3]
  stoichiometry N: 2

B1: M. smegmatis cognate site (MS Pal S1/S2) (dsDNA)
DNA 1: GGCTTGACGTGCGCGAACCGTCGAAAG
DNA 2: CTTTCGACGGTTCGCGCACGTCAAGCC
[4]
  binding result: binds

B2: Rv1019 18 bp inverted repeat (Palindrome Oligo S1/S2) (dsDNA)
DNA 1: TGACTTTAGACGGTGTCAACGCCGTCAGCACAGT
DNA 2: ACTGTGCTGACGGCGTTGACACCGTCTAAAGTCA
[5]
  binding result: binds
